{"source": "patent US20050255113A1", "about": "“Methods and compositions for inhibiting polypeptide accumulation associated with neurological disorders” (New York State Department of Health and Abgenix, Inc., priority 1999, published 2005)", "molecules": {"B1": {"name": "C4 sFv: human single-chain Fv intrabody from phage display, specific for the 17 N-terminal residues of huntingtin; SEQ ID NO: 6 (protein)", "scFv": "QVQLQESGGGLVQPGGSLRLSCAASGFTFSSYSMSWVRQAPGKGLEWVAVISYDGSNKYYADSVKGRFTISRDNSKNTLYLQMNSLRAEDTAVYYCARDRYFDLWGRGTLVTVSSGGGGSGGGGSGGGGSQSALTQPASVSGSPGQSITISCTGTSSDIGAYNYVSWYQQYPGKAPKLLIYDVSNRPSGISNRFSGSKSGDTASLTISGLQAEDEADYYCSSFANSGPLFGGGTKVTVL"}}, "key": {"[1]": {"target": "T1, biotinylated HD-peptide (HD peptide (1-17), N-terminal huntingtin) (Homo sapiens, UniProt P42858)", "T1 construct": "host or cells: chemical peptide synthesis", "test": "Kinetic binding analysis by surface plasmon resonance (BIAcore 2000)", "details": "corresponding to the Kd", "experimental": "A range of concentration (60 to 100 nM) of anti-huntingtin intrabody C4 sFv was used to measure the association rate (kon) on 50 RU of biotinylated-HD peptide bound to a streptavidin sensor chip.\nThe Kd of purified scFv clone C4 was determined by using surface plasmon resonance in a BIAcore 2000 (Biacore AG, Uppsala, Sweden). In a BIAcore flow cell, approximately 50 resonance units (RU) of biotinylated HD-peptide (250 nM in 1M NaCl and 50 mM NaOH) was coupled to a streptavidin sensor chip, pre-conditioned with three consecutive 1-minute injections of 1 M NaCl in 50 mM NaOH. […] Association was measured under a continuous flow of 5 μl/min with a concentration range from 60 to 100 nM, The kon was determined from a plot of In (dR/dt)/t versus concentration, where R is response and t is time (Karlsson et al., J. Immunol. Methods 145: 229-240 (1991)). The koff was determined from the dissociation part of the sensorgram at the highest concentration of intrabody analyzed by using a flow rate of 20 μl/min. The Kd was calculated as koff/kon.\n(§1) To characterize the precise binding properties of the intrabody of the invention, further qualitative and quantitative studies of sFv binding to immobilized antigen were conducted in vitro. […] The kinetics of association and dissociation were determined for the C4 sFv antibody in the BIAcore 2000 (FIG. 11B)."}, "[2]": {"tested_on": "N-terminal HD sequence (Nt-HD)", "test": "ELISA of sFv binding to immobilized GST-fusion proteins / biotinylated Nt-HD peptide", "details": "plates with streptavidin, GST-HD-42Q, GST-HD-65Q, GST-DRPLA-35Q", "experimental": "As described in Example 2, four rounds of selection were performed with decreasing concentrations of antigen at each round (100 nM, 50 nM, 10 nM, 1 nM). After the third round, bacterial clones were screened to isolate those which secreted sFv molecules specific to the N-terminal HD sequence. Screening was performed by ELISA. Bacterial supernatants containing secreted sFv were incubated with either 2% bovine serum albumin (BSA), as negative control, or with 2% BSA containing biotinylated antigen (0.1 μg/well, final concentration) in pre-blocked microtiter plates overnight at 4° C. The mixtures were then transferred to streptavidin-coated (0.1 μg/well, final concentration) microtiter plates. […] Bound IgG was detected with alkaline phosphatase conjugated to goat anti-mouse IgG.\nFour rounds of selection were performed with decreasing concentrations of antigen at each round (i.e., 100 nM, 50 nM, 10 nM, 1 nM). […] Bound sFv was detected with α-9E10 IgG followed by alkaline phosphatase conjugated goat anti-mouse IgG.\nas §1"}, "[3]": {"tested_on": "HD-polyQ-GFP aggregation in COS-7, BHK-21 and HEK 293 cells", "test": "Quantitation of SDS-insoluble fluorescent aggregates after co-transfection of sFv and HD-polyQ-GFP", "format": "cell-based", "details": "for number of SDS-insoluble fluorescent aggregates: intrabody to antigen plasmid ratio 5:1, HD-polyQ72 or Q104, 48 hours, COS-7, BHK-21, HEK 293, versus empty vector/control", "experimental": "Cells are shown photographed live at 48 hours after transfection by the calcium phosphate method; aggregates appear as intense foci of GFP signals. […] […] Cells were lysed with 2% SDS/2% Triton X-100/50 mM Tris at 48 hours after co-transfection. The number of insoluble, fluorescent aggregates in six or eight random fields was counted. Bars represent means of sextuplicate co-transfections ±SEM.\nIn particular, it was observed that the formation of pathological HD aggregates in situ display a striking punctate fluorescent morphology with polyglutamine lengths of 40 or more residues (i.e., with Q72 or Q104, but not Q25; FIG. 14). In addition, because these polypeptide aggregates are detergent-insoluble, a method for improved quantitation of residual fluorescent bodies after SDS lysis of transfected cells could be performed (Kazantsev et al., PNAS 96:11404-11409 (1999)). This improved assay allows for polypeptide aggregates to be more accurately enumerated because the plane of focus is eliminated as a variable in the experiment. Accordingly, this assay was utilized for quantitation of polyQ antigen aggregation, alone or in the presence of C4 sFv or control intrabody. COS-7, BHK, and 293 cells were co-transfected with plasmids that express the C4 or a control intrabody and HD-polyQ-eGFP fusions containing Q25, Q72, or Q104."}, "[4]": {"tested_on": "HD-polyQ72-GFP or HD-Q104-GFP in BHK cells", "test": "Double label immunofluorescence of BHK cells co-transfected with C4 sFv and HD-polyQ-GFP", "format": "cell-based", "details": "5:1 C4:HD-polyQ-GFP", "experimental": "(§2) Some aggregates are found in 104Q co-transfections (never in 25Q), often in cells not expressing C4 (arrowheads), but in some dually-transfected cells as well (arrow). […] Cell lysates were collected from 5:1 co-transfections (sFv:HD-72Q-GFP) in duplicate at 24 hours (prior to prominent aggregate formation and loss of HD-72Q-GFP to the insoluble compartment) and subjected to SDS-PAGE. The membrane was probed with 1:1000 […] primary antibody (Quantum), stripped and reprobed with 1:500 anti-actin antibody (Sigma). HD-72Q-GFP bands were of similar intensity after detection by HRP-conjugated secondary antibody and chemiluminescence.\n(§3) The typical intrabody constructs were fused to a C-terminal hemagglutinin (HA) peptide tag to facilitate immunodetection of the protein, while keeping the protein localized to the cytosol. […] The diffuse labeling was also characteristic of the normal length (25Q) construct, with or without intrabody co-transfection (FIG. 15)."}, "[5]": {"tested_on": "HD-72Q-GFP protein expression", "test": "Immunoblot of HD-72Q-GFP protein expression in co-transfections", "format": "cell-based", "details": "5:1 co-transfections, 24 hours, different transfection paradigms", "experimental": "as §2, §3"}}}
{"molecule": "B1", "values": [{"measurement": "binding affinity (Ka)", "setting": "[1]", "result": "1.3e+08", "unit": "M⁻¹"}, {"measurement": "ELISA binding specificity", "setting": "[2]", "result": "binds specifically to the N-terminal HD sequence"}, {"measurement": "ELISA binding specificity", "setting": "[2]; listed as cc-Nt-HD-C4 sFv", "result": "reacted preferentially with antigens containing the Nt-HD flanking peptide sequence"}, {"measurement": "extent of aggregation", "setting": "[3]; intrabody to antigen plasmid ratio 3:1, HD-polyQ72-eGFP or HD-polyQ104-eGFP", "result": "qualitative decrease in the extent of aggregation"}, {"measurement": "number of SDS-insoluble fluorescent aggregates", "setting": "[3]", "result": "pronounced reduction in aggregation"}, {"measurement": "number of SDS-insoluble fluorescent aggregates", "setting": "[3]; listed as C4", "result": "significantly reduced the number of aggregates"}, {"measurement": "GFP label and aggregates in dual transfectants", "setting": "[4]", "result": "substantial diffuse GFP label, but with only an occasional fluorescent aggregate"}, {"measurement": "HD protein expression level", "setting": "[5]", "result": "indistinguishable levels of products"}]}
